Measured values: paper PMC4596477, “Interaction of Myosin Phosphatase Target Subunit (MYPT1) with Myosin Phosphatase-RhoA Interacting Protein (MRIP): A Role of Glutamic Acids in the Interaction” (PLoS ONE, 2015)

B1: GST-tagged full-length MRIP: full-length MRIP protein with GST-tag, expressed in bacteria (protein, UniProt Q6WCQ1 1-1025, looked up)
chain: MSAAKENPCRKFQANIFNKSKCQNCFKPRESHLLNDEDLTQAKPIYGGWLLLAPDGTDFDNPVHRSRKWQRRFFILYEHGLLRYALDEMPTTLPQGTINMNQCTDVVDGEGRTGQKFSLCILTPEKEHFIRAETKEIVSGWLEMLMVYPRTNKQNQKKKRKVEPPTPQEPGPAKVAVTSSSSSSSSSSSIPSAEKVPTTKSTLWQEEMRTKDQPDGSSLSPAQSPSQSQPPAASSLREPGLESKEEESAMSSDRMDCGRKVRVESGYFSLEKTKQDLKAEEQQLPPPLSPPSPSTPNHRRSQVIEKFEALDIEKAEHMETNAVGPSPSSDTRQGRSEKRAFPRKRDFTNEAPPAPLPDASASPLSPHRRAKSLDRRSTEPSVTPDLLNFKKGWLTKQYEDGQWKKHWFVLADQSLRYYRDSVAEEAADLDGEIDLSACYDVTEYPVQRNYGFQIHTKEGEFTLSAMTSGIRRNWIQTIMKHVHPTTAPDVTSSLPEEKNKSSCSFETCPRPTEKQEAELGEPDPEQKRSRARERRREGRSKTFDWAEFRPIQQALAQERVGGVGPADTHEPLRPEAEPGELERERARRREERRKRFGMLDATDGPGTEDAALRMEVDRSPGLPMSDLKTHNVHVEIEQRWHQVETTPLREEKQVPIAPVHLSSEDGGDRLSTHELTSLLEKELEQSQKEASDLLEQNRLLQDQLRVALGREQSAREGYVLQATCERGFAAMEETHQKKIEDLQRQHQRELEKLREEKDRLLAEETAATISAIEAMKNAHREEMERELEKSQRSQISSVNSDVEALRRQYLEELQSVQRELEVLSEQYSQKCLENAHLAQALEAERQALRQCQRENQELNAHNQELNNRLAAEITRLRTLLTGDGGGEATGSPLAQGKDAYELEVLLRVKESEIQYLKQEISSLKDELQTALRDKKYASDKYKDIYTELSIAKAKADCDISRLKEQLKAATEALGEKSPDSATVSGYDIMKSKSNPDFLKKDRSCVTRQLRNIRSKSVIEQVSWDT
modifications: full-length GST tag
B2: MRIP: Myosin phosphatase-RhoA interacting protein (protein, UniProt Q6WCQ1 1-1025, looked up)
chain: B1 chain
modifications: full-length

Assays:
[1] = GST-tag, expressed in bacteria, after affinity purification
Description: Sedimentation velocity was performed over a range of concentrations of MRIP^545-878 (1.5–13.6 μM), MRIP^724-878 (4.7–42.3 μM), and MRIP^724-837 (7.5–67.1 μM) (Fig 2A).
To elucidate the stoichiometries of the MRIP peptides, the SedAnal program was used for curve fitting (Fig 2B). […] Diffusion contains important information about the shape of the molecule and that information is used in the data analysis. The recovery of samples after centrifugation is essentially 99% of the loading materials. […] The root mean square deviation (RMSD) of the fit was 0.010. […] The RMSD of the fit was 0.008.
We expressed and purified the MRIP peptide (residues 545–929) and the full-length MRIP protein using a chitin-binding tag and a GST-tag, respectively in bacteria.

full-length MYPT1 = conditions: immunoprecipitation and immunoblotting; ref [7],[11],[12]; cited from earlier work
Excerpt: It is, however, not clear which residues of MRIP are critical for its binding to MYPT1.

Row | Molecule | precipitation [1] | interaction with full-length MYPT1 (full-length MYPT1)
1 | B1 | precipitated after affinity purification | –
2 | B2 | – | interacts with the full-length MYPT1
